Reference: patent US6897294 (Genentech, dated 2005)
Blank lines part the entries; values can stand above or below the binder they belong to.

B3: vascular endothelial growth factor VEGF165 (ligand, UniProt P15692-4 27-191, looked up)
chain: APMAEGGGQNHHEVVKFMDVYQRSYCHPIETLVDIFQEYPDEIEYIFKPSCVPLMRCGGCCNDEGLECVPTEESNITMQIMRIKPHQGQHIGEMSFLQHNKCECRPKKDRARQENPCGPCSERRKHLFVQDPQTCKCSCKNTDSRCKARQLELNERTCRCDKPRR
notes: mature; also called VEGF ligand

Key:
[1] = biological target: B3; test: saturation binding of 125I-VEGF to transiently transfected 293 cells, background of non-transfected cells subtracted
Protocol: (§1) After preparation of these expression constructs, 293 cells were transfected with the constructs via DEAE-Dextran and transiently-expressing cells were analyzed for the ability to bind to the VEGF ligand. To detect binding of the VEGF ligand, a saturation binding assay was performed on transiently-expressing 293 cells expressing the intact FLT4 receptor, the flt-1 domain 2/FLT4 chimeric receptor, the flt-1 domains 1–3/FLT4 chimeric receptor, or the intact flt-1 receptor. […] The cell mixture was then layered over a 0.75 ml cushion of 30% sucrose, centrifuged for 10 minutes at maximum speed, and the pellet was recovered and counted in a gamma counter. […] The amount of counts added and the recovered counts bound were then subjected to scatchard analysis.

[2] = biological target: B3; test: saturation binding of 125I-VEGF to transiently transfected 293 cells, Scatchard analysis
Protocol: as §1

[3] = biological target: T1, flt-1(2)/FLT4 chimeric receptor (human, UniProt P35916 25-1363); test: as above
T1 construct: Stably expressed in NIH 3T3 cells for thymidine incorporation; also called flt-1 domain 2/FLT4 chimeric receptor
Protocol: as §1

[4] = biological target: T2, flt(1,2): flt-1 Ig-like domains 1 and 2 only fused to the Fc of IgG (human, UniProt P01857-1 104-330 = IgG part, limits assumed); test: 125I-VEGF165 binding to chimeric protein captured on anti-human Fc coated plates (FIG. 4)
T2 construct: domain: Fc of IgG; The true C-terminal limit may therefore be 225
T2 sequence (P01857 other isoform, or with tags, fused parts or gaps limits assumed): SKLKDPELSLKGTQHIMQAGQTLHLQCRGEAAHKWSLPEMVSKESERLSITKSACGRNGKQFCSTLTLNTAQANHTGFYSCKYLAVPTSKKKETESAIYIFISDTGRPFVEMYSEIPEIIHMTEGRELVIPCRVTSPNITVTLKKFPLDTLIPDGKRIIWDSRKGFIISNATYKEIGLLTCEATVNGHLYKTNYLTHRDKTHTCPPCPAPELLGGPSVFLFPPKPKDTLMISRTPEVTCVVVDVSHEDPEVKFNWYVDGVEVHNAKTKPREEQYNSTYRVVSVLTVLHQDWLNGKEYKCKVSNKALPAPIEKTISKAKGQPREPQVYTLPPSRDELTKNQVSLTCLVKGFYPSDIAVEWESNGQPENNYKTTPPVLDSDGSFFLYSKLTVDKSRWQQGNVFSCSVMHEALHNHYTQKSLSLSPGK
Protocol: (§2) Binding assays with the soluble chimeric VEGF receptors generated in Example 1 above were performed essentially as described by Park et al., *J. Biol. Chem.* 269:25646–25654 (1994). […] Plates were blocked for 1 hr with 10% fetal bovine serum in PBS (buffer B). After removal of the blocking buffer, 100 µl of a binding cocktail was added to each well. […] The specific activity of the iodinated VEGF was 5.69 ×10^7 cpm/microgram. Incubation in the coated wells proceeded for 4 hrs at room temperature, followed by 4 washes with buffer B. Binding was determined by counting individual wells in a gamma counter. Data was analyzed using a 4-parameter non-linear curve fitting program (Kalidagraph, Abelbeck Software).

[5] = biological target: T3, flt(2): flt-1 Ig-like domain 2 only fused to the Fc of IgG (human, UniProt P01857-1 104-330 = IgG part, limits assumed); test: as above
T3 construct: domain: Fc of IgG
T3 sequence (P01857 other isoform, or with tags, fused parts or gaps limits assumed): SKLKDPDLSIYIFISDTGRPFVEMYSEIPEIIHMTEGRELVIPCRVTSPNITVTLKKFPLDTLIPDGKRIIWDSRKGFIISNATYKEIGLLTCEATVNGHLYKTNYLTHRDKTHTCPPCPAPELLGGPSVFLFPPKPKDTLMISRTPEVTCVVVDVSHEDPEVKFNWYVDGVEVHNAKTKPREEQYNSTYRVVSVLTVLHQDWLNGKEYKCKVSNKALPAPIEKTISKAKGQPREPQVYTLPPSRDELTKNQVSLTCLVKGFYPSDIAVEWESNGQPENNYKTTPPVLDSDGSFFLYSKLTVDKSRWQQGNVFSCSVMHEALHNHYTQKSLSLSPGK
Protocol: as §2

[6] = biological target: T4, flt-1 extracellular domain/IgG Fc chimera (flt-1/IgG) (human, UniProt P17948 27-758); test: unlabeled VEGF titrated against 125I-VEGF165 binding to 1 ng immunoreactive flt-1/IgG on anti-Fc plates; 4-parameter fit (FIG. 5)
T4 construct: Secreted from CEN4 cells and used as conditioned medium quantified by Fc ELISA; also called intact flt-1/IgG chimeric VEGF receptor protein; native flt-1/IgG; not shown: Fc of human IgG1 (amino acids 216-443 of the Capon IgG gamma-1 heavy chain clone)
T4 sequence (P17948 other isoform, or with tags, fused parts or gaps mutant limits assumed): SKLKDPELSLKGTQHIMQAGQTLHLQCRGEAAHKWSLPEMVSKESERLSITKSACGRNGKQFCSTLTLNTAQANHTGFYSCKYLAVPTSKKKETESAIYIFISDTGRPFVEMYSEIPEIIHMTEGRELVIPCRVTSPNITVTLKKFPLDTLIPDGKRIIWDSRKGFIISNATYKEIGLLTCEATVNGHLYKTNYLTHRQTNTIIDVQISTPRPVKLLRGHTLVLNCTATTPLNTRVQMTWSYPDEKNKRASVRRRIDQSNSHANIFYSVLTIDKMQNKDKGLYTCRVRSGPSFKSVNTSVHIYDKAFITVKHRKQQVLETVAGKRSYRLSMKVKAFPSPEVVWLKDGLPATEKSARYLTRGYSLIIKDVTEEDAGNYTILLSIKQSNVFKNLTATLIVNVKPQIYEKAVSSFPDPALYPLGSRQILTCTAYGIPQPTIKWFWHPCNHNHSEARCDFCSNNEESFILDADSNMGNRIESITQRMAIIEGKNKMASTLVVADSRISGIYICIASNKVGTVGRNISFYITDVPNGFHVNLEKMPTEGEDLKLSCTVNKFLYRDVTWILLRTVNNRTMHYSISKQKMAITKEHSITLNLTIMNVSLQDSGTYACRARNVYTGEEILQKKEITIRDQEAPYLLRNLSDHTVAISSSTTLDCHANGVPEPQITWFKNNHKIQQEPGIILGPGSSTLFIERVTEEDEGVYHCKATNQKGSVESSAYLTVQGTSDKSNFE
Protocol: as §2
Binding assays were performed essentially as described above. […] This occurs at the point of inflection of the curve. […] Thus, the flt(1, 2, 3) deletion chimera behaves in a similar fashion to the intact flt-1/IgG chimeric protein with respect to binding to the VEGF ligand.

binding result [1]: no binding
B1: intact FLT4 receptor (receptor)
chain: YSMTPPTLNITEESHVIDTGDSLSISCRGQHPLEWAWPGAQEAPATGDKDSEDTGVVRDCEGTDARPYCKVLLLHEVHANDTGSYVCYYKYIKARIEGTTAASSYVFVRDFEQPFINKPDTLLVNRKDAMWVPCLVSIPGLNVTLRSQSSVLWPDGQEVVWDDRRGMLVSTPLLHDALYLQCETTWGDQDFLSNPFLVHITGNELYDIQLLPRKSLELLVGEKLVLNCTVWAEFNSGVTFDWDYPGKQAERGKWVPERRSQQTHTELSSILTIHNVSQHDLGSYVCKANNGIQRFRESTEVIVHENPFISVEWLKGPILEATAGDELVKLPVKLAAYPPPEFQWYKDGKALSGRHSPHALVLKEVTEASTGTYTLALWNSAAGLRRNISLELVVNVPPQIHEKEASSPSIYSRHSRQALTCTAYGVPLPLSIQWHWRPWTPCKMFAQRSLRRRQQQDLMPQCRDWRAVTTQDAVNPIISLDTWTEFVQGKNKTVSKLVIQNANVSAMYKCVVSNKVGQDERLIYFYVTTIPDGFTIESKPSEELLEGQPVLLSCQADSYKYEHLRWYRLNLSTLHDAHGNPLLLDCKNVHLFATPLAASLEEVAPGARHATLSLSIPRVAPEHEGHYVCEVQDRRSHDKHCHKKYLSVQALEAPRLTQNLTDLLVNVSDSLEMQCLVAGAHAPSIVWYKDERLLEEKSGVDLADSNQKLSIQRVREEDAGRYLCSVCNAKGCVNSSASVAVEGSEDKGSMEIVILVGTGVIAVFFWVLLLLIFCNMRRPANADIKTGYLSIIMDPGEVPLEEQCEYLSYDASQWEFPRERLHLGRVLGYGAFGFVVEASAFGIHKGSSCDTVAVKMLKEGASASEHRALMSELKILIHIGNHLNVVNLLGACTKPQGPLMVIVEFCKYGNLSNFLRAKRDAFSPCAEKSPEQRGRFRAMVELARLDRRRPGSSDRVLFARFSKSEGGARRASPDQEAEDLWLSPLTMEDLVCYSFQVARGMEFLASRKCIHRDLAARNILLSESDVVKICDFGLARDIYKDPDYVRKGSARLPLKWMAPESIFDKVYTTQSDVMSFGVLLWEIFSLGASPYPGVQINEEFCQRLRDGTRMRAPELATPAIRRIMLNCWSGDPKARPAFSEVLEILGDLLQGRGLQEEEEVCMAPRSSQSSEEGSFSQVSTMALHIIQADAEDSPPSLQRHSLAARYYNWVSFPGCLARGAETRGSSRMKTFEEFPMTPTTYKGSVDNQTDSGMVLASEEFEQIESRHRQESGFSCKGPGQNVAVTRAHPDSQGRRRRPERGARGGQVFYNSEYGELSEPSEEDHCSPSARVTFFTDNSY
notes: Transiently expressed on 293 cells; also called entire human FLT4 receptor

Kd [2]: ~10.4 pM
B2: flt-1(1, 2, 3)/FLT4 chimeric receptor (receptor)
chain: YSMTPPTLSLKGTQHIMQAGQTLHLQCRGEAAHKWSLPEMVSKESERLSITKSACGRNGKQFCSTLTLNTAQANHTGFYSCKYLAVPTSKKKETESAIYIFISDTGRPFVEMYSEIPEIIHMTEGRELVIPCRVTSPNITVTLKKFPLDTLIPDGKRIIWDSRKGFIISNATYKEIGLLTCEATVNGHLYKTNYLTHRQTNTIIDVQISTPRPVKLLRGHTLVLNCTATTPLNTRVQMTWSYPDEKNKRASVRRRIDQSNSHANIFYSVLTIDKMQNKDKGLYTCRVRSGPSFKSVNTSVRVHENPFISVEWLKGPILEATAGDELVKLPVKLAAYPPPEFQWYKDGKALSGRHSPHALVLKEVTEASTGTYTLALWNSAAGLRRNISLELVVNVPPQIHEKEASSPSIYSRHSRQALTCTAYGVPLPLSIQWHWRPWTPCKMFAQRSLRRRQQQDLMPQCRDWRAVTTQDAVNPIESLDTWTEFVEGKNKTVSKLVIQNANVSAMYKCVVSNKVGQDERLIYFYVTTIPDGFTIESKPSEELLEGQPVLLSCQADSYKYEHLRWYRLNLSTLHDAHGNPLLLDCKNVHLFATPLAASLEEVAPGARHATLSLSIPRVAPEHEGHYVCEVQDRRSHDKHCHKKYLSVQALEAPRLTQNLTDLLVNVSDSLEMQCLVAGAHAPSIVWYKDERLLEEKSGVDLADSNQKLSIQRVREEDAGRYLCSVCNAKGCVNSSASVAVEGSEDKGSMEIVILVGTGVIAVFFWVLLLLIFCNMRRPAHADIKTGYLSIIMDPGEVPLEEQCEYLSYDASQWEFPRERLHLGRVLGYGAFGKVVEASAFGIHKGSSCDTVAVKMLKEGATASEHRALMSELKILIHIGNHLNVVNLLGACTKPQGPLMVIVEFCKYGNLSNFLRAKRDAFSPCAEKSPEQRGRFRAMVELARLDRRRPGSSDRVLFARFSKTEGGARRASPDQEAEDLWLSPLTMEDLVCYSFQVARGMEFLASRKCIHRDLAARNILLSESDVVKICDFGLARDIYKDPDYVRKGSARLPLKWMAPESIFDKVYTTQSDVWSFGVLLWEIFSLGASPYPGVQINEEFCQRLRDGTRMRAPELATPAIRRIMLNCWSGDPKARPAFSELVEILGDLLQGRGLQEEEEVCMAPRSSQSSEEGSFSQVSTMALHIAQADAEDSPPSLQRHSLAARYYNWVSFPGCLARGAETRGSSRMKTFEEFPMTPTTYKGSVDNQTDSGMVLASEEFEQIESRHRQESGFSCKGPGQNVAVTRAHPDSQGRRRRPERGARGGQVFYNSEYGELSEPSEEDHCSPSARVTFFTDNSY
notes: Stably expressed in NIH 3T3 cells for thymidine incorporation; also called flt-1 domains 1-3/FLT4 chimeric receptor

Binder: B3
Kd [3]: ~10.2 pM | binding result [4]: no binding | binding result [5]: no binding | IC50 [6]: 1.89 ng/mL
